Assay results from publication PMC8199443.

Biological target: OpuABC-SS, OpuABC subunit of the ABC transporter OpuA with a C-terminal TwinStrepII-tag (Lactococcus lactis)
Experiment: SEC; affinity-purified OpuA reconstituted in MSP1D1 nanodiscs (DOPE/DOPC/DOPG; OpuA/MSP1D1/lipid 1:20:2000 or 1:20:1000), Superdex 200 Increase 10/300 GL, 50 mM KPi pH 7.0, 200 mM KCl; peak fraction on SDS-PAGE

stoichiometry N: 2
Substance: OpuABC-SS, OpuABC subunit of the ABC transporter OpuA with a C-terminal TwinStrepII-tag (natural protein)
